Assay results as given in PMC3197237.

Columns and labels:
[1] = molecular target: GST-AeIAP1 BIR1 (residues 24-118 of AeIAP1) (A. aegypti); assay: pull-down
[2] = molecular target: GST-AeIAP1 BIR2 (residues 188-278 of AeIAP1) (A. aegypti); assay: pull-down

Substance | % of input bound [1] | % of input bound [2]
in vitro translated full length AeDronc (enzyme) | 70.9 % of input | 45.2 % of input
activated (cleaved) AeDronc: in vitro translated AeDronc partially processed by active recombinant AeDronc | 79.9 % of input | 50.2 % of input
